In patent US10391180B2, “Self-assembling complex for targeting chemical agents to cells” (CEDARS-SINAI MEDICAL CENTER, priority 2007, dated 2019):

Experiments:
[1] = tested on: bilateral flank tumors (HER2+); assay: In vivo tumor toxicity, tumor growth; design: species or system mice; conditions: daily tail vein injections, 0.004 mg/kg Dox conc, 7 consecutive days
Description: FIGS. 12 (A)-(D) illustrates comparison of HerDox and Dox on (A) tumor growth, (B) animal weight, (C) cardiac tissue, and (D) cardiac function.
To assess in vivo tumor toxicity, mice bearing 3-4 week bilateral flank tumors began receiving daily tail vein injections of Dox or HerDox (0.004 mg/kg with respect to Dox conc), HerPBK10 alone (at equivalent protein concentration to HerDox) or saline for 7 consecutive days.

breast cancer cells = assay: HerDox trafficking, immunofluorescence against HerPBK10 in fixed cells; type: cell-based
Description: FIG. 15 illustrates HerDox trafficking in breast cancer cells. Cells incubated with HerDox at 37° C. were fixed at the indicated time points and processed for immunofluorescence using an antibody against HerPBK10. Images were captured using confocal microscopy under fluorescence and brightfield. Green, HerPBK10; Red, Dox. n, nucleus Bar, ˜8 microns.
To determine whether Dox remains attached to HerPBK10 during uptake, the inventors used immuno-fluorescence against HerPBK10. […] In fixed cells, nucleolar accumulation was not detectable as in the live cells (FIG. 14 (B)).

[2] = HerDox stability under different storage temperatures; type: physicochemical; conditions: up to 12 days
Description: FIGS. 6 (A)-(B) illustrates conjugate stability under different storage conditions, or in serum. As illustrated in FIG. 6 (A), HerDox was incubated up to 12 days at 4° C., RT, or 37° C. Samples were filtered through ultrafiltration spin columns every other day, and retentate and filtrate absorbances measured at 480 nm to determine relative Dox retention or release from conjugates, respectively. As illustrated in FIG. 6 (B), to mimic extended exposure to cells in culture medium, HerDox immobilized on Ni-NTA beads were incubated with bovine serum in DMEM for the indicated times at 37° C. before each sample was pelleted. Absorbance of supernatants (Filtrates) and bead eluates (Retentates) were measured at 480 nm to detect Dox. Relative Dox release or retention in serum is expressed as normalized to control (corresponding sample lacking serum). N=3 per time point.
The inventors tested the stability of HerDox over 12 days under different storage temperatures: 4° C., room temperature, or 37° C. On each day, a sample underwent ultrafiltration, then filtrates and retentates were measured to determine whether any Dox was released from the complex. […] The inventors also examined HerDox stability in serum-containing media at 37° C. […] Dox retention in the conjugate was also assessed by eluting the conjugate from the beads at each time point.

[3] = Stability in mouse whole blood; type: in vitro ADME; conditions: 0.12 mg/mL Dox conc, 37° C. up to 1 h, 0.5 mM EDTA
Description: FIG. 13 illustrates stability in mouse whole blood. Freshly collected whole blood was processed by ultrafiltration through 10K MW cutoff membranes after up to 1 h incubation with HerDox or Dox at 37° C. As 0.5 mM EDTA was used as an anticoagulant, HerDox in EDTA alone (-blood) was processed in parallel. Bars represent fluorescence of retained (retentates) or released (filtrates) Dox as a percentage of the total fluorescence of each sample. Scale of Y-axis is adjusted to show presence of filtrate samples. N=3 per treatment.
To assess the feasibility of measuring in vivo stability, the inventors incubated HerDox (at 0.12 mg/mL final Dox conc) or free Dox at equivalent concentration in freshly collected whole blood from mice and incubated the mixtures at 37° C. up to 1 h. As the anticoagulant, 0.5 mM EDTA, was present in the blood collection, parallel samples were incubated at 37° C. in EDTA alone. Samples representing input HerDox (before incubation in blood) were incubated at 37° C. in HEPES-buffered saline. All samples were then centrifuged through 10K MW cutoff filters and Dox fluorescence measured in retentates and filtrates (SpectraMax M2 from Molecular Devices). […] Likewise, there is no appreciable loss of Dox from HerDox retentates from samples incubated in blood compared to those incubated in saline or EDTA alone (FIG. 13).

B1: HerDox: non-covalent complex of HerPBK10, a small double-stranded nucleic acid and intercalated Dox (conjugate)
chain: LPPRLKEMKSQESAAGSKLVLRCETSSEYSSLRFKWFKNGNELNRKNKPQNIKIQKKPGKSELRINKASLADSGEYMCKVISKLGNDSASANITIVESNEIITGMPASTEGAYVSSESPIRISVSTEGANTSSSTSTSTTGTSHLVKCAEKEKTFCVNGGECFMVKDLSNPSRYLCKCQPGFTGARCTENVPMKVQNQEKAEELYMRRAAMYEEGPPPSYESVVSAAPVAAALGSPFDAPLDPPFVPPRYLRPTGGRNSIRYSELAPLFDTTRVYLVDNKSTDVASLNYQNDHSNFLTTVIQNNDYSPGEASTQTINLDDRSHWGGDLKTILHTNMPNVNEFMFTNKFKARVMVSRLPTKDNQVELKYEWVEFTLPEGNYSETMTIDLMNNAIVEHYLKVGRQNGVLESDIGVKFDTRNFRLGFDPVTGLVMPGVYTNEAFHPDIILLPGCGVDFTHSRLSNLLGIRKRQPFQEGFRITYDDLEGGNIPALLDVDAYQASLKDDTEQGGGGAGGSNSSGSGAEENSNAAAAAMQPVEDMNDHAIRGDTFATRAEEKRAEAEAAAEAAAPAAQPEVEKPQKKPVIKPLTEDSKKRSYNLISNDSTFTQYRSWYLAYNYGDPQTGIRSWTLLCTPDVTCGSEQVYWSLPDMMQDPVTFRSTRQISNFPVVGAELLPVHSKSFYNDQAVYSQLIRQFTSLTHVFNRFPENQILARPPAPTITTVSENVPALTDHGTLPLRNSIGGVQRVTITDARRRTCPYVYKALGIVSPRVLSSRTFKKKKKKKKKK
modifications: left off: small tags and cut ends
notes: non-covalent complex of HerPBK10, a small double-stranded nucleic acid and intercalated Dox
tumor growth [1]: essentially prevented tumor growth
location of Dox and HerPBK10 during uptake (breast cancer cells; 30 and 60 min): increasing levels of Dox accumulate in the nucleus while the majority of HerPBK10 remains in the cytoplasm
integrity of HerDox during uptake (colocalization of HerPBK10 and Dox) (breast cancer cells; 15 min of uptake): still intact
product remaining intact ([2]; 4° C.): 100%
effect of storage on Dox incorporation ([2]; room temperature and 37° C.): enhance the incorporation of the drug
loss of Dox from the conjugate in whole blood [3]: no detectable loss of Dox
